The values below come from publication PMC4551932, “Different motif requirements for the localization zipcode element of β-actin mRNA binding by HuD and ZBP1”.

Residue numbers refer to the chain shown, from its start.

The target in data set [1] is T1, HuD (GST-HuD) (Rattus norvegicus (rat), UniProt O09032 1-385). The experiment in a line: EMSA; REMSA: 50 mM Tris-HCl pH 7.0, 150 mM NaCl, 5 mM MgCl2, 0.2 mM DTT, 0.25 mg/ml tRNA, 0.25 mg/ml BSA, room temperature 20 min; 20 fmol RNA and 3 pmol protein in 20 ul. The following applies: protein: recombinant, tags: GST N-terminal (pGEX-2T), label: biotin at both ends. Background: In EMSA bound probe runs differently from free probe, usually more slowly.

Data set [2] deals with T2, ZBP1 (His-ZBP1) (Rattus norvegicus (rat), UniProt Q8CGX0 1-577). Kind of data set: EMSA; apparent Kd; REMSA: 50 mM Tris-HCl pH 7.0, 150 mM NaCl, 5 mM MgCl2, 0.2 mM DTT, 0.25 mg/ml tRNA, 0.25 mg/ml BSA, room temperature 20 min; 20 fmol RNA and 3 pmol protein in 20 ul. Conditions: protein: recombinant, tags: 6xHis (replaces GST in pGEX), label: biotin at both ends.
The target of data set [3] is T2, ZBP1 (His-ZBP1). The experiment in a line: EMSA; REMSA: 50 mM Tris-HCl pH 7.0, 150 mM NaCl, 5 mM MgCl2, 0.2 mM DTT, 0.25 mg/ml tRNA, 0.25 mg/ml BSA, room temperature 20 min; 20 fmol RNA and 3 pmol protein in 20 ul. Conditions: protein: recombinant, tags: 6xHis (replaces GST in pGEX), label: biotin at both ends.
For data set [4], the target named is T1, HuD (GST-HuD). Kind of data set: competition EMSA; HuD displaces ZBP1 (4 pmol) from zipcode RNA; REMSA: 50 mM Tris-HCl pH 7.0, 150 mM NaCl, 5 mM MgCl2, 0.2 mM DTT, 0.25 mg/ml tRNA, 0.25 mg/ml BSA, room temperature 20 min; 20 fmol RNA and 3 pmol protein in 20 ul. The following applies: protein: recombinant; tags: GST N-terminal (pGEX-2T); label: biotin at both ends; stem-loop, 16-nt terminal loop (predicted).

The target in data set [5] is T1, HuD (GST-HuD). The experiment in a line: EMSA; no difference from wild type; REMSA: 50 mM Tris-HCl pH 7.0, 150 mM NaCl, 5 mM MgCl2, 0.2 mM DTT, 0.25 mg/ml tRNA, 0.25 mg/ml BSA, room temperature 20 min; 20 fmol RNA and 3 pmol protein in 20 ul. Conditions: protein: recombinant; tags: GST N-terminal (pGEX-2T); label: biotin at both ends; disrupted structure (predicted).

Where [6] appears, read: stem-loop, 10-nt terminal loop (predicted).

T2 sequence (Q8CGX0 whole entry): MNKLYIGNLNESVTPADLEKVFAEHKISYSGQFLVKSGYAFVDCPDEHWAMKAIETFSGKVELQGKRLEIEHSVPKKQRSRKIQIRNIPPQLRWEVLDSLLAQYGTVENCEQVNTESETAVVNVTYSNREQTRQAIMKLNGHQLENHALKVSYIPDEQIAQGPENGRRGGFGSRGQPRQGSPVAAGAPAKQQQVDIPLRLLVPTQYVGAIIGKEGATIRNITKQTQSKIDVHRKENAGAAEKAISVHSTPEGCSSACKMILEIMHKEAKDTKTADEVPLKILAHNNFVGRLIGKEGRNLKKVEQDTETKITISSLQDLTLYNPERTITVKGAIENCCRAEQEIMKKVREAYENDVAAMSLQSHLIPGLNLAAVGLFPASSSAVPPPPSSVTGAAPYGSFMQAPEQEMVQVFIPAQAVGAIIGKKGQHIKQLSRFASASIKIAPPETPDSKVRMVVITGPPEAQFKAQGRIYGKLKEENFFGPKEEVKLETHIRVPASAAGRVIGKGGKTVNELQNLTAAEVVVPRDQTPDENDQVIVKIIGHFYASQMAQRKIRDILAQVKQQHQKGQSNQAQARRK
T1 sequence (O09032 whole entry): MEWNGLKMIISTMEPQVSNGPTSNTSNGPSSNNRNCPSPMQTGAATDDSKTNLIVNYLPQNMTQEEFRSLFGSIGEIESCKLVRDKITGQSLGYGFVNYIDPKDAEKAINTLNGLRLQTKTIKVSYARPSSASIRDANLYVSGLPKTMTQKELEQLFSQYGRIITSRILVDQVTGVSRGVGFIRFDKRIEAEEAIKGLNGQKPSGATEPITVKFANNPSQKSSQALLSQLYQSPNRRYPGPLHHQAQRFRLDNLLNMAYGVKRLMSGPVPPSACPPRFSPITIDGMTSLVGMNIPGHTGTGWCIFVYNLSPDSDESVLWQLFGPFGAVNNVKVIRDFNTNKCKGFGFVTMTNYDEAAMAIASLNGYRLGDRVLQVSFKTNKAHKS

B1: chicken zipcode (structured_RNA)
RNA: ACCGGACUGUUACCAACACCCACACCCCUGUGAUGAAACAAAACCCAUAAAUGC
Turning to B1, the binding result with HuD (GST-HuD) [1] is on record as “no binding”. Besides, the Kd in the data set with ZBP1 (His-ZBP1) [2] turned out to be 78.8 nM.

B2: delta(ACACCC/U-rich) zipcode (structured_RNA)
RNA: CGGACUGUUACUGAGCUGCGGACAAAACCUAACUUGC
modifications: ACACCC and UUUCUUU deleted
With B2, the binding result with ZBP1 (His-ZBP1) [3] (altered structure (predicted)) and in the data set with HuD (GST-HuD) [1] (altered structure (predicted)) was “no binding” each time.

B3: delta-ACACCC zipcode (structured_RNA)
RNA: CGGACUGUUACUGAGCUGCGUUUUUUUCUUUGACAAAACCUAACUUGC
modifications: ACACCC deleted
Turning to B3, the binding result with ZBP1 (His-ZBP1) [3] (setting [6]) and in the data set with HuD (GST-HuD) [1] (setting [6]) was “binds” throughout.

B4: WT zipcode (rat, 54 nt) (structured_RNA)
RNA: CGGACUGUUACUGAGCUGCGUUUUACACCCUUUCUUUGACAAAACCUAACUUGC
The IC50 is the concentration that inhibits the measured activity by half. B4: the IC50 with HuD (GST-HuD) [4] was 171 nM. For the same molecule, in the data set with ZBP1 (His-ZBP1) [2] (stem-loop, 16-nt terminal loop (predicted)), the Kd is 28.1 nM.

B5: AAMTCG zipcode (structure-disrupted mutant) (structured_RNA)
RNA: B4 RNA with A10C, A14G
modifications: structure disrupted; ACACCC and U-rich motifs intact
As to B5, the Kd in the data set with ZBP1 (His-ZBP1) [2] (disrupted structure (predicted)) was 315 nM. Further, in the data set with HuD (GST-HuD) [5], the binding result is “binds”.
